# Non-standard residues stand in square brackets, D forms with d.
# B1: ZP2654 (peptide)
# peptide: H-H[dS]QGTFTSDYSKYLDRARADDFVAWLKST-NH2
# SMILES: CC(C)C[C@H](NC(=O)[C@H](Cc1c[nH]c2ccccc12)NC(=O)[C@H](C)NC(=O)[C@@H](NC(=O)[C@H](Cc1ccccc1)NC(=O)[C@H](CC(=O)O)NC(=O)[C@H](CC(=O)O)NC(=O)[C@H](C)NC(=O)[C@H](CCCNC(=N)N)NC(=O)[C@H](C)NC(=O)[C@H](CCCNC(=N)N)NC(=O)[C@H](CC(=O)O)NC(=O)[C@H](CC(C)C)NC(=O)[C@H](Cc1ccc(O)cc1)NC(=O)[C@H](CCCCN)NC(=O)[C@H](CO)NC(=O)[C@H](Cc1ccc(O)cc1)NC(=O)[C@H](CC(=O)O)NC(=O)[C@H](CO)NC(=O)[C@@H](NC(=O)[C@H](Cc1ccccc1)NC(=O)[C@@H](NC(=O)CNC(=O)[C@H](CCC(N)=O)NC(=O)[C@@H](CO)NC(=O)[C@@H](N)Cc1c[nH]cn1)[C@@H](C)O)[C@@H](C)O)C(C)C)C(=O)N[C@@H](CCCCN)C(=O)N[C@@H](CO)C(=O)N[C@H](C(N)=O)[C@@H](C)O
# Target: human glucagon-like peptide 1 receptor (human, UniProt P43220 24-463)
# Assay: cell-based or functional assay
# human glucagon-like peptide 1 receptor, sequence (P43220 24-463): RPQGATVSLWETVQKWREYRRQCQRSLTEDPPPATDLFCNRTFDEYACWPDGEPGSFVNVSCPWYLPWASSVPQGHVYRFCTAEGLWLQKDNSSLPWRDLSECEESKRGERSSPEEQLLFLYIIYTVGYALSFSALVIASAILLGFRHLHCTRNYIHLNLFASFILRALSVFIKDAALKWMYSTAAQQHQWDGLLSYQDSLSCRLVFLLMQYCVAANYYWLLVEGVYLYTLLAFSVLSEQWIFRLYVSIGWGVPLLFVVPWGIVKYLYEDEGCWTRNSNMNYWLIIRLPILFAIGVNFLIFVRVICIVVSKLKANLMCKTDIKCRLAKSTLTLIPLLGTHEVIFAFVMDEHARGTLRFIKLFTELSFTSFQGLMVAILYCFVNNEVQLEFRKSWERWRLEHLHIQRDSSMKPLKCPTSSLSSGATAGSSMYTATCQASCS
row,"EC50 of cAMP formation, HEK293 cells expressing human GLP-1R [nM]",Binder
1,0.23,H-HSQGTFTSDYSKYLDRARADDFVAWLKST-NH2 [ZP2495]
2,0.1,H-HSQGTFTSDYSKYLDRARADDFVEWLKST-NH2 [ZP2649]
3,0.2,H-HSQGTFTSDYSKYLDRARADDFVAWLKSA-NH2 [ZP2634]
4,0.8,H-HSQGTFTSDYSKYLDRARADDFVAWLERA-NH2 [ZP2650]
5,0.1,H-HSQGTFTSDYSKYLDRARAHDFVAWLKST-NH2 [ZP2648]
6,0.2,H-HSQGTFTSDYSKYLDRARADDFVAWLKEA-NH2 [ZP2635]
7,0.8,B1
8,0.1,H-HSQGTFTSDYSKYLDRARAEDFVAWLKST-NH2 [ZP2637]

# Target: human glucagon receptor (human, UniProt P47871 26-477)
# Assay: cell-based or functional assay
row,"EC50 of cAMP formation, HEK293 cells expressing human Glucagon-R [nM]",Binder
1,0.5,H-HSQGTFTSDYSKYLDRARADDFVAWLKST-NH2 [ZP2495]
2,0.3,H-HSQGTFTSDYSKYLDRARADDFVEWLKST-NH2 [ZP2649]
3,0.5,H-HSQGTFTSDYSKYLDRARADDFVAWLKSA-NH2 [ZP2634]
4,0.07,H-HSQGTFTSDYSKYLDRARADDFVAWLERA-NH2 [ZP2650]
5,0.2,H-HSQGTFTSDYSKYLDRARAHDFVAWLKST-NH2 [ZP2648]
6,0.2,H-HSQGTFTSDYSKYLDRARADDFVAWLKEA-NH2 [ZP2635]
7,0.5,B1
8,0.2,H-HSQGTFTSDYSKYLDRARAEDFVAWLKST-NH2 [ZP2637]
